Results reported in paper PMC10115800, “Two assembly modes for SIN3 histone deacetylase complexes” (Cell Discovery, 2023).

T1: Pst3 with C-terminal 3× Flag-tag (S. pombe, UniProt O74755 1-1154)
T1 construct: Pst3, Sin3 homolog of S. pombe, subunit of the SIN3L complex; PAH3, HID and HCR are resolved in the model; Endogenous protein; also called Pst3-Flag; Sin3 isoform Pst3; source: endogenous locus tagged, S. pombe; purified (ANTI-FLAG M2 resin, glycerol gradient); not shown: 3× Flag, C-terminal, kept
T1 sequence (looked up): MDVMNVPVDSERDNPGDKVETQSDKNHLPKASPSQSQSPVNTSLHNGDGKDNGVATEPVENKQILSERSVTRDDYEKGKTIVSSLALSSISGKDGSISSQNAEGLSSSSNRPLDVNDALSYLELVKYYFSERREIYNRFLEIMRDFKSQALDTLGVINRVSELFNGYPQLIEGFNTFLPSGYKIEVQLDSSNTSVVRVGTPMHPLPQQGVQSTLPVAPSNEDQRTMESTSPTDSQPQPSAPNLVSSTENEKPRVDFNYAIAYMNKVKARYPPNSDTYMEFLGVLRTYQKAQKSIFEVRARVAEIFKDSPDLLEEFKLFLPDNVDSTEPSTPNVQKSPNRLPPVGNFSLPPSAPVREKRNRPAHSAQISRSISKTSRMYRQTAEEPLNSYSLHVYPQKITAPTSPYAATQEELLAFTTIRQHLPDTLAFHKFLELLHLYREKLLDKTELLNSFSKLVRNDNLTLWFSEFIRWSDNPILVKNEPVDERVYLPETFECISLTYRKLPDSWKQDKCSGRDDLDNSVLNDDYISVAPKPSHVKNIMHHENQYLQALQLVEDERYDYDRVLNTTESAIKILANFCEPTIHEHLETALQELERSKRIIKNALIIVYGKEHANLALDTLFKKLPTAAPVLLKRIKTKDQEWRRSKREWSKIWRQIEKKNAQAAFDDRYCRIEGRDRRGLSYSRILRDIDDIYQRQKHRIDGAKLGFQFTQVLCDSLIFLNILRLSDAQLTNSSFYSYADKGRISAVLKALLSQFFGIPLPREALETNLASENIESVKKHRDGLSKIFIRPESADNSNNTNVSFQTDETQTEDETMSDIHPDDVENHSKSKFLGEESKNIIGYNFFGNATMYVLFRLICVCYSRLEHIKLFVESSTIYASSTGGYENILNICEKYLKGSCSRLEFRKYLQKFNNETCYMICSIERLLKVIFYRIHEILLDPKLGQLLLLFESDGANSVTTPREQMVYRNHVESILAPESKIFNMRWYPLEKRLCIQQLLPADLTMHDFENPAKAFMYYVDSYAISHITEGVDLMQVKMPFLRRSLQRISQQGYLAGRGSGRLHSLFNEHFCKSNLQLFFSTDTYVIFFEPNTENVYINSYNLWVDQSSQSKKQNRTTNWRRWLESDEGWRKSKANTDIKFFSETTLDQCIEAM

T2: Pst2 with C-terminal 3× Flag-tag (S. pombe, UniProt O13919 1-1075)
T2 construct: Pst2, Sin3 homolog of S. pombe, organising subunit of the SIN3S complex; all five domains (PAH1/2/3, HID, HCR) are resolved; also called Pst2-Flag; Sin3 isoform Pst2; source: endogenous locus tagged, S. pombe; purified (ANTI-FLAG M2 resin, glycerol gradient); not shown: 3× Flag, C-terminal, kept
T2 sequence (looked up): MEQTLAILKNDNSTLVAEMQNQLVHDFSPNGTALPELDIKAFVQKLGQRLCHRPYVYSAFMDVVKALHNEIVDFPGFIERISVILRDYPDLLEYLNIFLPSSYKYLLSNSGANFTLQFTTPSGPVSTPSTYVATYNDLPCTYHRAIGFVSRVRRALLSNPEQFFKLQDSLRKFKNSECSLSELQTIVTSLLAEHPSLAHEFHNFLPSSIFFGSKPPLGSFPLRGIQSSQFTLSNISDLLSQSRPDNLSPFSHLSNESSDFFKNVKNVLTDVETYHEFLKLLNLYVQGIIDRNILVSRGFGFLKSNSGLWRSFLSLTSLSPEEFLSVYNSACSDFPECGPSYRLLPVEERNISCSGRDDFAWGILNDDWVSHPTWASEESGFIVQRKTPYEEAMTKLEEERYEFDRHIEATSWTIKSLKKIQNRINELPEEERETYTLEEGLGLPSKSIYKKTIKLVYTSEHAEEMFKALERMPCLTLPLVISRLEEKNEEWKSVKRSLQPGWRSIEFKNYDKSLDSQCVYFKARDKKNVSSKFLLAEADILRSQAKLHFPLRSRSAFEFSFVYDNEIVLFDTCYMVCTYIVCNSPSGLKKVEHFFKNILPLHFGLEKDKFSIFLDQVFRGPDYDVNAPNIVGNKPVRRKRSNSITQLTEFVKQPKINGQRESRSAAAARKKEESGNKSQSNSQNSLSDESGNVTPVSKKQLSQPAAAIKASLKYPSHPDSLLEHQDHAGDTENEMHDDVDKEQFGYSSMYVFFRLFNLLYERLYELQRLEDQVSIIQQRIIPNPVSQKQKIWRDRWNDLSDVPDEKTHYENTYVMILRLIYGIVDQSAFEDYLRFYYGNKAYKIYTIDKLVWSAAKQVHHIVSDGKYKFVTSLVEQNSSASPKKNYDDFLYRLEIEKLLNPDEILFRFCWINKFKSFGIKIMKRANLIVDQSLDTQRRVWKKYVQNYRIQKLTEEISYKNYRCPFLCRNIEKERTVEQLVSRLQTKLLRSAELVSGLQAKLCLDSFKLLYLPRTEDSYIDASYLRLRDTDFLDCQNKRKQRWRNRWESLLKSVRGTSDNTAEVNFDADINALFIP

B1: WD40 domain-containing protein Prw1 (natural protein, S. pombe, UniProt O14021 1-431, looked up)
chain: MAVSAVPHPSKQAQASEEGINQEKCINEEYKIWKKNSPFLYDLIITRALEWPCMSLQWYPEQQIFAEHGYTEQKMFLGVRADVGKYLLAVASIQLPYLNQTVPPTTMEGASAGDESSLRVNISNLYSHPESVCSAKLMPQDDSCVATVGNYHNDVLVFDKESFESYSSASESPLKPKYRLTKHTQPCTSVCWNFLSKGTLVSGSQDATLSCWDLNAYNESDSASVLKVHISSHEKQVSDVRFHYKHQDLLASVSYDQYLHVHDIRRPDASTKPARSVHAHSGPIHSVAFNPHNDFILATCSTDKTIALWDLRNLNQRLHTLEGHEDIVTKISFSPHEEPILASTSADRRTLVWDLSRIGEDQPAEEAQDGPPELLFMHGGHTSCTIDMDWCPNYNWTMATAAEDNILQIWTPSRSIWGNEQLEEDATAYLS
notes: Prw1 of S. pombe, homolog of S. cerevisiae Ume1 and human RBBP4/7; N-terminal NEE box and C-terminal WD40 domain; two copies in SIN3L (Prw1, Prw1’), one in SIN3S; Endogenous protein; source: endogenous, S. pombe; co-purified with Pst3-3×Flag or Pst2-3×Flag (ANTI-FLAG M2 resin, glycerol gradient)

Tests used:
Conditions in all cases: both partners purified
[1] = biological target: B1; test: cryo-EM structure; endogenous SIN3L complex purified from the Pst3-3×Flag S. pombe strain, cross-linked with 1 mM BS3; 20 mM HEPES pH 7.4, 50 mM NaCl, 2 mM DTT; 3.2 Å
[2] = biological target: T1, Pst3 with C-terminal 3× Flag-tag; test: as above
Pst1 = biological target: T3, Pst1 (S. pombe, UniProt Q09750 1-1522); test: as above
T3 construct: Pst1, Sin3 homolog of S. pombe, endogenous subunit of the SIN3L complex; PAH3, HID and HCR are resolved in the model; Endogenous protein, untagged in the Pst3-Flag strain; only part of it is modelled in PDB 8I03; also called Sin3 isoform Pst1; Sin3 homolog Pst1; source: endogenous, S. pombe; co-purified with Pst3-3×Flag (ANTI-FLAG M2 resin, glycerol gradient)

[3] = biological target: T2, Pst2 with C-terminal 3× Flag-tag; test: cryo-EM structure; endogenous SIN3S complex purified from the Pst2-3×Flag S. pombe strain, cross-linked with 1 mM BS3; 20 mM HEPES pH 7.4, 50 mM NaCl, 2 mM DTT; 2.9 Å

T3 sequence (Q09750 whole entry, canonical isoform): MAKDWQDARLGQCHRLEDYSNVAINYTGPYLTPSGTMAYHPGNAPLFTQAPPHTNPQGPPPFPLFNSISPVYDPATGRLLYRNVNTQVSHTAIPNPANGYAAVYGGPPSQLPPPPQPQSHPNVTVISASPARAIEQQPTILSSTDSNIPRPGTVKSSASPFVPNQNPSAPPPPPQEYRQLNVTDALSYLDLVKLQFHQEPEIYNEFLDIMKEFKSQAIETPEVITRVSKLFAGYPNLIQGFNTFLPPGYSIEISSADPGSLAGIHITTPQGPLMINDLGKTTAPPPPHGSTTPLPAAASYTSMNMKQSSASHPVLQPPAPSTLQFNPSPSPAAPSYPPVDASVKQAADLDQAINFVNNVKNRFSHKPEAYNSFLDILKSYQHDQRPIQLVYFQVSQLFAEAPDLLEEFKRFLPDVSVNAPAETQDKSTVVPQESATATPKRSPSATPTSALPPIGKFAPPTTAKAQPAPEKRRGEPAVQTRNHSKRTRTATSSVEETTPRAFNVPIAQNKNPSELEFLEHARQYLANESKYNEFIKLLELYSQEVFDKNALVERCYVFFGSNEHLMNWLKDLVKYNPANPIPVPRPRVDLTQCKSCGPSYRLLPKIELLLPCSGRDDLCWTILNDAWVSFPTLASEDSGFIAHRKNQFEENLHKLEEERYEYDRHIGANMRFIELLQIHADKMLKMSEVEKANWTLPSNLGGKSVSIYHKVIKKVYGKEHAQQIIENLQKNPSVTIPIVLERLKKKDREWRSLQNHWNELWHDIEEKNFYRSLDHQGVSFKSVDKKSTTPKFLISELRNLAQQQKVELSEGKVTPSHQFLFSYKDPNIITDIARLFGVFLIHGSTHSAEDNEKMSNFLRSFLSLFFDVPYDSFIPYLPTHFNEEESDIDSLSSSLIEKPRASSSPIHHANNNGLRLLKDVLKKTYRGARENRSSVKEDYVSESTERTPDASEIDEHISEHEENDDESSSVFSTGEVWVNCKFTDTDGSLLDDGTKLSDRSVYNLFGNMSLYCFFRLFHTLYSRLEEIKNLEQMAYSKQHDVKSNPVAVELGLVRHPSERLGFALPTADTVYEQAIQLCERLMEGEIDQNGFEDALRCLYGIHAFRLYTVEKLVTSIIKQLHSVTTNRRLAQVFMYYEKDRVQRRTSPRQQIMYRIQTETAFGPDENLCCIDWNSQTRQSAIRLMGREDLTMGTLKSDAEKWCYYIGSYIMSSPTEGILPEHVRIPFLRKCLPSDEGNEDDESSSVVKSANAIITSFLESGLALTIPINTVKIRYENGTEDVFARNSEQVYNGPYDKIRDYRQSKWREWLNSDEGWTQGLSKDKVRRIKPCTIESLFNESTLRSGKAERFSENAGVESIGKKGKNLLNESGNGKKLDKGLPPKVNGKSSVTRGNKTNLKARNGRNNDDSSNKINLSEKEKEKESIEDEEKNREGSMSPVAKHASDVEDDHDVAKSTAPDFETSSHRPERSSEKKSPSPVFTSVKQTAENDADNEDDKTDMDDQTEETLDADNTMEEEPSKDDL

| Binder | binding result [1] | binding result [2] | binding result (Pst1) | binding result [3] |
| --- | --- | --- | --- | --- |
| Rxt3 (natural protein, S. pombe, UniProt O94707 1-351, looked up, Rxt3 of S. pombe, subunit of the Pst3 Lobe of the SIN3L complex; Endogenous protein; source: endogenous, S. pombe; co-purified with Pst3-3×Flag (ANTI-FLAG M2 resin, glycerol gradient)) MEEKTPENEQSKKTFDPKDSMKIEETSTNGSSQPSQPSNIKLSIGSILESSNDNGDPEYSENGMGNMNMNTLPMATSTPMSYTKQPSEAKYPNSVWERKGVSDQEENTSSVKRQKTLPTQSSGEEEAKYSHPGAPTATSADSISMESRPSNLSTSLSKTTSYPQFQVRQFVSPIISIDNSALEPFLNRYPASESLFPVTEYEYTPWLEFPLLYSSIGKFVRVTIDIKWLNAAINPRLCRREIWGTDVYTDDSDIATILAHCGCFSLLKPVRKIAVVDLYILPPLVHYKGTRKNQIESRSWSSRQDGISLKIKEVTWKPACASIFENSIHTLTLEERLQARLELSRSSTFKI | binds | binds | – | – |
| histone deacetylase Clr6 (enzyme, S. pombe, UniProt O59702 1-405, looked up, Clr6, zinc-dependent class I histone deacetylase of S. pombe; two copies in SIN3L (Clr6, Clr6’), one in SIN3S; Endogenous protein; source: endogenous, S. pombe; co-purified with Pst3-3×Flag or Pst2-3×Flag (ANTI-FLAG M2 resin, glycerol gradient)) MGFGKKKVSYFYDEDVGNYHYGPQHPMKPHRVRMVHNLVVNYNLYEKLNVITPVRATRNDMTRCHTDEYIEFLWRVTPDTMEKFQPHQLKFNVGDDCPVFDGLYEFCSISAGGSIGAAQELNSGNAEIAINWAGGLHHAKKREASGFCYVNDIALAALELLKYHQRVLYIDIDVHHGDGVEEFFYTTDRVMTCSFHKFGEYFPGTGHIKDTGIGTGKNYAVNVPLRDGIDDESYESVFKPVISHIMQWFRPEAVILQCGTDSLAGDRLGCFNLSMKGHSMCVDFVKSFNLPMICVGGGGYTVRNVARVWTYETGLLAGEELDENLPYNDYLQYYGPDYKLNVLSNNMENHNTRQYLDSITSEIIENLRNLSFAPSVQMHKTPGDFTFENAEKQNIAKEEIMDERV | – | binds | binds | binds |
| B1 | – | binds | binds | binds |
